Laboratory results: patent US20030119038A1, “NARC1, novel subtilase-like homologs” (priority 1999, published 2003)

Legend:
[1] = test system: NARC1; test: Autoprocessing of NARC1 transiently expressed in COS-7 cells, Western blotting; assay type: cell-based, rat
Method: The wild-type NARC1-myc/His clone was transiently expressed in COS-7 cells. The cells were then harvested, lysed, and the protein extracted. Polyacrylamide gel electrophoresis was then carried out on the protein extracts, followed by Western blotting. The resulting membranes were probed using both anti-myc- and NARC1-specific antibodies. Routine techniques and protocols were followed. See, e.g., Ausubel et al.(1998), supra.
This cleavage event maps to approximately the junction between the pro-domain and the enzymatic domain.
Autoprocessing of NARC1 was investigated as follows. COS-7 cells were co-transfected with the following EGFP and myc plasmids: (A) wild-type NARC1-myc and wild-type NARC1-EGFP; (B) S385A NARC1-myc and S385A NARC1-EGFP; and (C) wild-type NARC1-myc and S385A NARC1-myc. The cells were then harvested, lysed, and the protein extracted. Polyacrylamide gel electrophoresis was then carried out on the protein extracts, followed by Western blotting. The resulting membranes were sequentially probed using first the anti-myc and then the anti-EGFP monoclonal antibodies (Abs). Thus, the experiment allowed sequential detection of the separate NARC1 products encoded from the two co-transfected plasmids.
As indicated above, a series of C-terminal truncation mutants were generated. The truncation NARC1-myc/His clones were transiently expressed in COS-7 cells. The cells were then harvested, lysed, the protein extracted, and polyacrylamide gel electrophoresis carried out on the protein extracts. Western analysis was then carried out using both anti-myc and NARC1-specific antibodies.

[2] = biological target: T1, NARC1 (Rattus norvegicus, UniProt P59996); test: Autoprocessing of NARC1 expressed in E. coli
T1 construct: made in house; host or cells: E. coli
Method: The N-terminus of the processed protein was determined by protein microsequencing.

[3] = test system: cerebellar granule neurons (CGNs); test: Apoptosis after transient expression of NARC1-EGFP constructs in CGNs, Laser-Scanning Cytometry; assay type: cell-based, rat; details: EGFP construct transiently expressed in CGNs, percentage of GFP-positive cells undergoing apoptosis
From the text: Cerebellar granule neurons (CGNs) were transfected with a NARC1-enhanced green fluorescent protein (EGFP) expression construct (with the EGFP sequences located at the carboxy terminus of the fusion protein). Unless otherwise indicated, the construct utilized in the following experiments contained 2073 base pairs of the rat NARC1 transcript set forth in FIG. 5. Specifically, this corresponds to nucleotides 205-2277 and amino acid residues 56-746 of SEQ ID NO:4 and SEQ ID NO:3, respectively. The polypeptide sequence encoded by the NARC1 insert utilized herein has been set forth as SEQ ID NO:9 herein. The nucleotide sequence of this insert has been set forth as SEQ ID NO:10.
To investigate NARC1-mediated neuronal cell death, transient expression of the EGFP clones was carried out in cerebellar granule neurons (CGNs). These studies are set forth in detail as follows.

[4] = test system: SY5Y cells; test: NARC1 overexpression in SY5Y cells, nuclear condensation by Hoechst assay; assay type: cell-based, human
Method: Wild-type and mutant NARC1 were overexpressed in SY5Y cells (a human neuroblastoma cell line). Nuclear condensation was assessed by Hoechst assay.

[5] = test system: Ntera2 cells; test: NARC1-EGFP transfection of Ntera2 cells, nuclear area condensation; assay type: cell-based, human; details: C-terminal EGFP constructs, 24 hours
Method: Specifically, Ntera2 cells were transfected with C-terminal EGFP constructs of wild-type NARC1, each of the point-mutant NARC1s, and caspase 9. At 24 hours, nuclear area condensation was assessed for the entire Ntera2 cell population and compared to nuclear area condensation for the transfected cell population.

Autoprocessing [2]: underwent autoprocessing
B1: wild-type NARC1: rat NARC1 subtilase-like protein, residues 56-746 of SEQ ID NO:3, expressed as C-terminal EGFP or myc/His fusion (protein)
chain: MGIRCSTWLRWPLSPQLLLLLLLCPTGSRAQDEDGDYEELMLALPSQEDSLVDEASHVATATFRRCSKEAWRLPGTYVVVLMEETQRLQVEQTAHRLQTWAARRGYVIKVLHVFYDLFPGFLVKMSSDLLGLALKLPHVEYIEEDSLVFAQSIPWNLERIIPAWQQTEEDSSPDGSSQVEVYLLDTSIQSGHREIEGRVTITDFNSVPEEDGTRFHRQASKCDSHGTHLAGVVSGRDAGVAKGTSLHSLRVLNCQGKGTVSGTLIGLEFIRKSQLIQPSGPLVVLLPLAGGYSRILNTACQRLARTGVVLVAAAGNFRDDACLYSPASAPEVITVGATNAQDQPVTLGTLGTNFGRCVDLFAPGKDIIGASSDCSTCYMSQSGTSQAAAHVAGIVAMMLNRDPALTLAELRQRLILFSTKDVINMAWFPEDQRVLTPNRVATLPPSTQETGGQLLCRTVWSAHSGPTRTATATARCAPEEELLSCSSFSRSGRRRGDRIEAIGGQQVCKALNAFGGEGVYAVARCCLLPRVNCSIHNTPAARAGPQTPVHCHQKDHVLTGCSFHWEVENLRAQQQPLLRSRHQPGQCVGHQEASVHASCCHAPGLECKIKEHGIAGPAEQVTVACEAGWTLTGCNVLPGASLPLGAYSVDNVCVARIRDAGRADRTSEEATVAAAICCRSRPSAKASWVHQ
modifications: C-terminal EGFP or myc/His tag; rattus norvegicus
Autoprocessing Activity ([1]; C-terminal myc/His fusion transiently expressed in COS-7 cells, 60 kD processing product on Western blot): normal autoprocessing
Intermolecular cleavage of co-expressed S385A mutant ([1]; COS-7 cells co-transfected with wild-type and S385A NARC1 carrying different tags, anti-myc then anti-EGFP Western): absence of intermolecular cleavage
Resulting Cell Death Activity [3]: moderately pro-apoptotic
Resulting Cell Death Activity ([3]; listed as NARC1-EGFP): increase in apoptosis
Promotion of cell death (nuclear condensation) [4]: does not promote cell death
Sensitivity of cells to expression (nuclear area condensation) [5]: some sensitivity
